Earlier results as cited in PMC10024700.

Key:
[1] = target: Cadherin-23 EC1-2 (Mus musculus) (UniProt Q99PF4); test: AUC
[2] = target: Protocadherin-15 EC1-2 (Mus musculus) (UniProt Q99PJ1); test: ITC
[3] = target: Protocadherin-15 EC1-2 (Mus musculus) (UniProt Q99PJ1); test: SPR

Kd [1]: 18000 nM
Kd [2]: 2900 nM
Kd [3]: 840 nM
Substance: Cadherin-23 EC1-2 (from UniProt Q99PF4)
